Reference: patent US20240254192A1

Experiments:
[1] = target: tBCMA [BCMA extracellular domain - PDL1 hinge & TM plus Trop2 cytoplasmic domain]; test: cell-based or functional assay
[2] = target: CD30 expressed on primary T cells transduced with BCL6 and BCL2L1 (Homo sapiens (Human)) (UniProt P28908); test: cell-based or functional assay
CD30 expressed on primary T cells transduced with BCL6 and BCL2L1 (Homo sapiens (Human)), sequence (P28908 19-595 limits assumed): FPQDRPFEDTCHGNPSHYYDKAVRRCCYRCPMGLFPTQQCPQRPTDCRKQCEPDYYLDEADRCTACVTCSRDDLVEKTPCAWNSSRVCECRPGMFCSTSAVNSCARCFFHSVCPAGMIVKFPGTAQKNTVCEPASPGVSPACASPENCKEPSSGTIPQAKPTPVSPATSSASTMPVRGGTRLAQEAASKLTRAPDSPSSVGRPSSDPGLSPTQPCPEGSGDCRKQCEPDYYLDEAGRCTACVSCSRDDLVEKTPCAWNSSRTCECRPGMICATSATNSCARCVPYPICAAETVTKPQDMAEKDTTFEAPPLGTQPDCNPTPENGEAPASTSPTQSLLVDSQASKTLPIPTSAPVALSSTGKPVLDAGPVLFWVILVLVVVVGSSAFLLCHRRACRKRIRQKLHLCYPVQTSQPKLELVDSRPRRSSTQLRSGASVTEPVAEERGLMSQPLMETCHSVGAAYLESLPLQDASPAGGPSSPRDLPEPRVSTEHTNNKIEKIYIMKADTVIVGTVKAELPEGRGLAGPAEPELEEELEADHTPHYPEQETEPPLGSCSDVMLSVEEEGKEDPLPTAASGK

tBCMA [BCMA extracellular domain - PDL1 hinge & TM plus Trop2 cytoplasmic domain], sequence (chain, as listed by the source limits assumed, form in doubt): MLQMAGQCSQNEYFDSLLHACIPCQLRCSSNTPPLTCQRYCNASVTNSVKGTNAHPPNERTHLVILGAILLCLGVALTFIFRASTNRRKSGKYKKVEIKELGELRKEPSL

| Substance | percent change in live cell number (day 2) [1] [%] | percent change in live cell number [2] [%] |
| --- | --- | --- |
| belantamab mafodotin (antibody) | < 80 |  |
| brentuximab vedotin (antibody) |  | < 95 |
